Reference: the RNAGym collection of RNA variant scans (doi:10.1073/pnas.2313332121)

B1: TPR t1 (parent)
chain: GACCAAUCUGCCCUCAGAGCUCGAGAACAUCUUCGGAUGCAGAGGAGGCAGGCUUCGGUGGCGCGAUAGCGCCAACGUCCUCAACCUCCAAUGCAUCCCACCACAUGAUGAUGCCUGAAGAGCCUUGGUUUUUUG

Variants of: B1
Assay: polymerase ribozyme fitness, log enrichment relative to wild type (log ratio); higher = more active; in vitro selection for triplet polymerase activity
Method in brief: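 Each subunit of a heterodimeric triplet polymerase ribozyme was represented by a PCR-built, transcribed mutant library that underwent triplicate single-round in vitro selection with frozen incubation at −7 °C. Extended constructs were recovered by gel excision, streptavidin-bead capture and RT-PCR, and Illumina sequencing of input and output libraries kept genotypes with ≥10 input reads and ≥1 read per output. Fitness is the logarithm of genotype enrichment relative to wild-type enrichment, from inverse-variance-weighted replicate averages, with a logarithm base of 2.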

Variant	polymerase ribozyme fitness (log ratio)
G48A U112A U125G G127C	-1.12
G47U G127C U130C	-2.06
G47U U78C	-1.44
C49U C62U C114G G117C U125C U129C	-7.74
G48U C56A C114G G127C	-5.92
G48U A118G U125G	-2.75
G48U U59A G60U G122A C123A	-1.51
A50G C79G U87G	-0.314
A50C C124A	0.557
C49U G61U	-0.402
G48U G57A G58A	-0.738
G48U C72U C85A U92C G93C C101U	-3.44
G48U U59A U78G U116A	-3.29
C49U C124G	0.761
C49G C115A	-1.51
C49G C115U	-1.48
C49G C115G	-2.98
A50C G61U	-0.0844
C49U A90G C124A	1.48
C49U G61U C70G U81G C115G C123U U130A	-5.96
C49A C123U	1.14
C49G C98G	-4.99
A50G G52C G71U C79A G110U	-4.97
C49A G77A C82A U92C G113U C114U	-2.49

Variant	polymerase ribozyme fitness (log ratio)
C49U C82A U87C U96A	-1.66
G48U C76G G110A G127A	-2.63
A50C A75G A95C	-0.114
G48A U54G G110C	-4.76
C49U G51U G71A C86U	-7.37
G48U G110A C124G U133A	-1.53
C49A A105C	-2.48
A50C C88A U130C U133A	-0.495
C49U C80G	-5.44
G48A G110A	-1.6
C49G G57U	-0.441
G48A C88U U96A	-1.74
G48C A100U	-1.76
A50C C56U	-0.0268
G48C G61U	0.754
A50G C123A	0.295
G48A G61C C88A C97U C115G A119G U126A	-3.38
G48U U59G C72U C94G	-1.86
C49U G71U	-0.77
C49U G71A	-1.46
C49U G71C	-2.01
G48U C72U	-1.19
C49A A91U A95G A100C	-6.08
C49U G71C G117U G120A C124A	-2.34

Variant	polymerase ribozyme fitness (log ratio)
G48U A100C A105C C123U	-4.99
G48U A91U C123U G127U	-2.98
A50C G69A U78C C97U	-4.07
C49U G69U C80A	-3.24
G48U C70U C114A	-2.21
C49G G120U U132A	-0.00759
C49U A119U C123U	0.0952
G48A C80A	-2.53
C49U G63C C124U	0.36
G48U G57U A75G A83C G117A	-4.82
G48A U106A	-0.42
C49A G69U	0.034
C49U G65C C104G C123A	-7.83
G47U G135A	-2.09
C49A A68G A90U	-6.08
C49U G60C	-0.958
C49U G60U	-0.405
C49A C56A U59A C73G C114A G128C	-8.01
C49A C79U C114U G120U	-4.69
G48A C64U A111G	-0.284
C49A C56U G120U	0.2
G48U A111U U125G	-4.47
G48U U59C C86G	-2.19
A50G C80G A83G G120C	-6.33

Variant	polymerase ribozyme fitness (log ratio)
G47U U126G	-3.77
G48C G51U C53U	-4.86
C49A C70U C82A C104U A105U C123G G135U	-5.46
G47U U131G	-1.85
C49U C62U G77A U78G C80G A90C G107U C115G G120C	-7.16
A50C C72U G77U C99A U116A G120C C123U	-8.09
C49U G63A U67C C85U G93U G110C C124A	-8.14
G48C C101U U112C	0.0907
G48A G71C G117A	-1.66
C49U C53U C72G C114U	-3.44
C49U G120C	0.88
C49U G120U	-0.184
A50G C64U	0.0869
C49U G63A	-1.67
G48A G52A C101G	-2.71
C49G C62A A100U	-2.34
C49G G63U U92C	-3.98
G48U G58A G122A	-1.21
A50G A105C	-2.43
A50G C64U A84U	-0.379
G48A G63A A75G	-1.21
A50G C82A G120U	-0.452
C49U C89U	0.0169
C49G C85G U116G	-3.63

Variant	polymerase ribozyme fitness (log ratio)
A50C C123A	-0.166
C49U C73G	-0.732
A50G G51U C89A C124U	-4.23
A50C G57U G69A G120A G127A	-3.95
G48A G69U C72U U126G G128A U132A	-2.53
C49U U78C	-1
C49A C56A C64U U130C	-0.336
C49G A90C U126C	-3.39
C49A C73A C89U A105U	-3.83
G48C G57A	-0.626
G48A C82U	-0.23
C49A G77A U106C C114A	-2.9
G48A C73A G127C	-1.15
A50C U92G U112A G135A	-3.14
C49G G69U G117A	-1.13
G48A U130C	-0.486
G48A U130G	-1.37
G48A G128U	-2.69
G48C C56G G110U	-1.56
C49A A74C C94U U116A	-3.09
C49U U54A U92C G120C G128A	-4.05
G48U G110C	-4.65
C49A U81C U129G	-3.78
C49U U96C C124A	1.03

Variant	polymerase ribozyme fitness (log ratio)
C49U G120C C123G	-0.212
G48C C73U	-0.559
C49A C73U G120U	-0.216
G48A U87A	-0.877
C49G G63A U78A C99A	-8.17
G48U G63U C86U	-1.38
G48C G60C G110A	-2.42
C49A C72A C73U C97G C123A	-5.81
C49U C98U	-2.16
G48U C88G G113C A121C	-3.7
G48C G60U C86A C94U U106C G117C	-6.53
C49G C99U G127U	-4.66
A50G G52A	0.186
C49U G60A A83G U133A	-0.755
A50G G71A	-1.41
C49U C64U	-0.897
G48C C79U G128C	-4.29
G48U C53G G69U	-0.128
C49A C70U C80A U116C	-7.47
G48A G71C U96C	-1.75
C49G C101A C124U	0.417
C49U C62A C115A G122A	-2.37
C49A C72U C97G G128C	-6.74
G48U U55C	-1.53

Variant	polymerase ribozyme fitness (log ratio)
G48A C101U	-2.29
C49G C62G	-3.46
C49G G77U	-1.25
A50C U116C	-1.32
A50C C56A G77C C115A	-1.07
G48A G93A U96C C99U	-4.9
G48C C49A U78G U81G	-1.87
G48A C62U	-0.525
C49U C62G G71A	-1.5
C49U U106A U116G G128A	-5.82
C49G G57U C82G U96G	-2.49
C49G C72U	-0.921
C49A G135U	-1.83
G48A G69U C123U	0.885
C49U A68G A84C U131A	-4.91
G48C C86U C115A	-1.07
C49G C70G	-4.79
C49G C70A	-2.2
C49G A83G C88A C102U G120C	-5.33
G48U A84C C115A	-1.64
C49A C101G	-2.23
G47U U87G U129A	-4.44
G48A C73U C85A	-1.26
